Measurements taken from article PMC11222974, “The effect of ADAMTS13 on graft‐versus‐host disease” (Journal of Cellular and Molecular Medicine, 2024).
One block for each molecule: values may come before it.

Legend:
integrin αL chain = integrin αL chain (UniProt P20701); experiment: SPR; Biacore 3000, 25°C; integrin αL amine-coupled to CM5 (~500 RU), soluble VWF or VWF-A2 flowed over at 30 μL/min in TBSTG (25 mM Tris pH 7.5, 150 mM NaCl, 0.05% Tween, 2% glycerol); apparent
[1] = target: T1, factor VIII‐free Von Willebrand factor (human, UniProt P04275 764-2813); experiment: SPR; Biacore 3000, 25°C; factor VIII-free VWF amine-coupled to CM5 (~3000 RU after TCEP), αL flowed over at 30 μL/min in TBSTG (25 mM Tris pH 7.5, 150 mM NaCl, 0.05% Tween, 2% glycerol); two-state binding model; apparent; details: both partners purified
T1 construct: Von Willebrand factor, human, factor VIII-free; multimeric; molar concentration counted with a monomeric MW of 260 kDa; Multimeric protein; On the SPR chip it was treated with 10 mM TCEP after coupling; also called VWF; recombinant human factor VIII‐free VWF; source: bought: Haematologic Technologies / Prolytix, catalogue HCVWF‐0191

Kd (integrin αL chain): 94 nM
ka1 (integrin αL chain): 140000 M⁻¹ s⁻¹
kd1 (integrin αL chain): 0.013 s⁻¹
Molecule: recombinant VWF‐A2 protein (domain or fragment)

Kd [1]: 120 nM
B1: integrin αL chain (receptor, UniProt P20701 26-1090, looked up)
chain: YNLDVRGARSFSPPRAGRHFGYRVLQVGNGVIVGAPGEGNSTGSLYQCQSGTGHCLPVTLRGSNYTSKYLGMTLATDPTDGSILACDPGLSRTCDQNTYLSGLCYLFRQNLQGPMLQGRPGFQECIKGNVDLVFLFDGSMSLQPDEFQKILDFMKDVMKKLSNTSYQFAAVQFSTSYKTEFDFSDYVKRKDPDALLKHVKHMLLLTNTFGAINYVATEVFREELGARPDATKVLIIITDGEATDSGNIDAAKDIIRYIIGIGKHFQTKESQETLHKFASKPASEFVKILDTFEKLKDLFTELQKKIYVIEGTSKQDLTSFNMELSSSGISADLSRGHAVVGAVGAKDWAGGFLDLKADLQDDTFIGNEPLTPEVRAGYLGYTVTWLPSRQKTSLLASGAPRYQHMGRVLLFQEPQGGGHWSQVQTIHGTQIGSYFGGELCGVDVDQDGETELLLIGAPLFYGEQRGGRVFIYQRRQLGFEEVSELQGDPGYPLGRFGEAITALTDINGDGLVDVAVGAPLEEQGAVYIFNGRHGGLSPQPSQRIEGTQVLSGIQWFGRSIHGVKDLEGDGLADVAVGAESQMIVLSSRPVVDMVTLMSFSPAEIPVHEVECSYSTSNKMKEGVNITICFQIKSLIPQFQGRLVANLTYTLQLDGHRTRRRGLFPGGRHELRRNIAVTTSMSCTDFSFHFPVCVQDLISPINVSLNFSLWEEEGTPRDQRAQGKDIPPILRPSLHSETWEIPFEKNCGEDKKCEANLRVSFSPARSRALRLTAFASLSVELSLSNLEEDAYWVQLDLHFPPGLSFRKVEMLKPHSQIPVSCEELPEESRLLSRALSCNVSSPIFKAGHSVALQMMFNTLVNSSWGDSVELHANVTCNNEDSDLLEDNSATTIIPILYPINILIQDQEDSTLYVSFTPKGPKIHQVKHMYQVRIQPSIHDHNIPTLEAVVGVPQPPSEGPITHQWSVQMEPPVPCHYEDLERLPDAAEPCLPGALFRCPVVFRQEILVQVIGTLELVGEIEASSMFSLCSSLSISFNSSKHFHLYGSNASLAQVVMKVDVVYEKQML
notes: integrin αL chain (CD11a), recombinant, Origene TP321297; αL chain alone, without β2, in the SPR experiments; In the functional rows this molecule stands for αLβ2 on Jurkat cells; also called aL; CD11a; source: bought: Origene, catalogue TP321297
